Reference: patent US7618787B2, “Method of screening compound capable of accelerating or inhibiting apoptosis, apoptosis accelarator and apoptosis inhibitor” (Hisamitsu Pharmaceutical Co., Inc., priority 2004, dated 2009)

What was measured:
[1] = target: T1, GST-p73 fusion proteins (Homo sapiens, UniProt O15350); experiment: In vitro GST pull-down assay; assay type: binding; settings: in vitro pull-down (FIG. 13)
T1 construct: made in house
T1 sequence (O15350 114-328): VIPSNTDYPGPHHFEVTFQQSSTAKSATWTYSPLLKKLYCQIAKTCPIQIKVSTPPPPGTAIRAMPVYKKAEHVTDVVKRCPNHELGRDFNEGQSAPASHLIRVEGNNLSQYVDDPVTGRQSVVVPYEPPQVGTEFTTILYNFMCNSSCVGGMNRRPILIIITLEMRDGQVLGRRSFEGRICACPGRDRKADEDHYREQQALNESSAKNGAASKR
Protocol: Whole cell lysates prepared from COS7 cells expressing FLAG-IKK-α were mixed with glutathione S-transferase (GST) or GST fusion protein and incubated with slow shaking at 4° C. for 2 hours in the presence of glutathione-Sepharose beads (Amersham Pharmacia Biotech). Then, the Sepharose beads were precipitated by brief centrifugation and vigorously washed with NETN buffer (pH 7.5; 50 mM Tris-Cl, 150 mM sodium chloride, 0.1% NP-40, and 1 mM EDTA) containing 1 mM PMSF. The proteins bound with the beads were eluted therefrom by the addition of 30 μL of 2×Laemmli SDS sample buffer, then boiled for 5 minutes, and separated with 10% SDS-PAGE. The proteins were transferred to PVDF membranes and immunoblotted with […] as described above.
To investigate whether IKK-α interacted with p73 in cultured mammal cells, whole cell lysates were prepared from transfected COS7 cells, then immunoprecipitated with an anti-FLAG or anti-HA antibody, and analyzed by immunoblot using an anti-p73 or anti-FLAG antibody, respectively. […] Likewise, HA-p73β was co-immunoprecipitated with FLAG-IKK-α (data not shown). […] To identify determinants of p73 participating in the interaction with IKK-α, several deletion mutants of p73 fused to GST were prepared and examined for their abilities to bind to FLAG-IKK-α by in-vitro pull-down assay. […]

[2] = target: T2, HA-p73α (Homo sapiens, UniProt O15350); experiment: Ubiquitination assay in COS7 cells; assay type: cell-based; settings: COS7, HA-p73α and HA-ubiquitin, MG-132 (FIG. 18, 19)
T2 construct: expressed in transfected cells; host or cells: COS7
T2 sequence (O15350 1-636): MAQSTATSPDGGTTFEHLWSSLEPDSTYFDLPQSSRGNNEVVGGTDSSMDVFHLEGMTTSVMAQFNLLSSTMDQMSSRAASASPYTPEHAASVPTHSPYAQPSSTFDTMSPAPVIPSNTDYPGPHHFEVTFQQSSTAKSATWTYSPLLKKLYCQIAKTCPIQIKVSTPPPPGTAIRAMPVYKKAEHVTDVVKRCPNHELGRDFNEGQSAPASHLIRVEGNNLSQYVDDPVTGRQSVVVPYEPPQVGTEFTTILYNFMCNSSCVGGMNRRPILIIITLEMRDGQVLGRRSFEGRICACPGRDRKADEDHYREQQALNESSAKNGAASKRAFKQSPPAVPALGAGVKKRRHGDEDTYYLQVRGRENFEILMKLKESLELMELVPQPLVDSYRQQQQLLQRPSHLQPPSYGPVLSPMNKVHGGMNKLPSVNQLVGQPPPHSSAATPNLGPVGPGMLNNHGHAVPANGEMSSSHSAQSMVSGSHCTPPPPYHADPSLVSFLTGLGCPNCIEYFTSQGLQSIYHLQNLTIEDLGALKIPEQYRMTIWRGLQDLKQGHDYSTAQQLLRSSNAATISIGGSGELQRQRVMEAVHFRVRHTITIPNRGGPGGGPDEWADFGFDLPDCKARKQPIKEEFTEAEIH
Protocol: COS7 cells were transiently transfected with a constant amount of expression plasmids encoding HA-p73α and HA-Ub in the presence or absence of varying amounts of IKK-α expression plasmids. After […] from the transfection, the cells were exposed for 6 hours to a proteasome inhibitor MG-132 (final concentration: 20 μM), and lysates from the whole cells were first subjected to immunoprecipitation with an anti-p73 monoclonal antibody and then to immunoblot using an anti-HA monoclonal antibody (12CA5; Roche Molecular Biochemicals) to analyze ubiquitination levels.
As described by Lee, C.-W. et al., Oncogene 18: 4171-4181 (1999), the steady-state level of p73 was regulated at least partially by the proteolytic process through the ubiquitin-proteasome pathway. Whether IKK-α inhibited the ubiquitination of p73 was investigated. COS7 cells were transfected with expression plasmids for HA-p73α and HA-ubiquitin together with or without varying amounts of IKK-α or FLAG-IKK-β expression plasmids. After 48 hours of the transfection, lysates from the whole cells were analyzed by immunoprecipitation and immunoblot and examined for the presence of p73α containing HA-ubiquitin.

[3] = system: H1299 cells; experiment: Apoptosis assay (trypan blue / Red-Gal double staining), p73α-dependent; assay type: cell-based, human; settings: H1299, coexpression with HA-p73α, 48 hours (FIG. 25-27)
Protocol: To detect apoptosis via p73α and IKK overexpression, H1299 cells were seeded at a density of 1.5×10^4 cells/well onto a 6-well tissue culture dish. Next day, the cells were transiently transfected with 50 ng of β-galactosidase expression plasmid and 50 ng of HA-p73α expression plasmid in the presence or absence of varying amounts of IKK-α or IKK-β expression vectors (100, 200, or 400 ng). After 48 hours of the transfection, the cells were washed with ice-cold PBS and stained at room temperature for 10 minutes with 0.4% trypan blue (PBS solution). Then, the cells were washed twice with PBS, then fixed for 10 minutes in PBS containing 2.5% glutaraldehyde, 1 mM magnesium chloride, and 2 mM EGTA, and stained for 2 hours with Red-Gal (Research Organics) according to the method described in Bayon, Y. et al., Mol. Cell. Biol. 23: 1061-1074 (2003). Red-Gal was used as a marker for visualizing the transfected cells to evaluate the degree of apoptosis occurring in the transfectants. […] Results were indicated by an average of three independent transfections (each performed three times or more).
Potential effect(s) of IKK-α on p73-dependent biological functions such as the regulation of apoptosis was examined. […] After 48 hours of the transfection, the cells were subjected to double staining with trypan blue (nonviable cells) and Red-Gal (transfected cells), and the number of purple cells was scored.

amount of ubiquitinated p73α [2]: decreased
B1: IKK-α: IKK-α protein, amino acid sequence SEQ ID NO: 24, expressed from plasmid; apoptosis enhancer (protein, listed as Homo sapiens)
chain: MERPPGLRPGAGGPWEMRERLGTGGFGNVCLYQHRELDLKIAIKSCRLELSTKNRERWCHEIQIMKKLNHANVVKACDVPEELNILIHDVPLLAMEYCSGGDLRKLLNKPENCCGLKESQILSLLSDIGSGIRYLHENKIIHRDLKPENIVLQDVGGKIIHKIIDLGYAKDVDQGSLCTSFVGTLQYLAPELFENKPYTATVDYWSFGTMVFECIAGYRPFLHHLQPFTWHEKIKKKDPKCIFACEEMSGEVRFSSHLPQPNSLCSLIVEPMENWLQLMLNWDPQQRGGPVDLTLKQPRCFVLMDHILNLKIVHILNMTSAKIISFLLPPDESLHSLQSRIERETGINTGSQELLSETGISLDPRKPASQCVLDGVRGCDSYMVYLFDKSKTVYEGPFASRSLSDCVNYIVQDSKIQLPIIQLRKVWAEAVHYVSGLKEDYSRLFQGQRAAMLSLLRYNANLTKMKNTLISASQQLKAKLEFFHKSIQLDLERYSEQMTYGISSEKMLKAWKEMEEKAIHYAEVGVIGYLEDQIMSLHAEIMELQKSPYGRRQGDLMESLEQRAIDLYKQLKHRPSDHSYSDSTEMVKIIVHTVQSQDRVLKELFGHLSKLLGCKQKIIDLLPKVEVALSNIKEADNTVMFMQGKRQKEIWHLLKIACTQSSARSLVGSSLEGAVTPQTSAWLPPTSAEHDHSLSCVVTPQDGETSAQMIEENLNCLGHLSTIIHEANEEQGNSMMNLDWSWLTE
binding to GST-p73 deletion mutants [1]: bonded to GST-p73 (114-328) but not to other GST-fused proteins | number of cells undergoing p73α-dependent apoptosis [3]: increased the number of cells undergoing apoptosis
